# According to patent publication US20210179710A1, “COMBINATION IMMUNOTHERAPY AND CHEMOTHERAPY FOR THE TREATMENT OF A HEMATOLOGICAL MALIGNANCY” (Actinium Pharmaceuticals, Inc., priority 2018, published 2021):
# Read-outs that look alike come from different tables or passages of the source.
# Key:
# relapsed/refractory AML = assay: Dose escalation (MTD) in patients with relapsed/refractory AML; format: in vivo, human
# Description: A maximum tolerated dose (MTD) of a single injection of the radiolabeled lintuzumab was determined to be 3 uCi/kg patient weight. As a split dose (e.g., 2 equal doses administered 4-7 days apart), the MTD was determined to be 2 uCi/kg per dose, or 4 uCi/kg total. […] Determination of MTD was based on the severity of the adverse effects observed at each dose level. Anti-leukemic effects included elimination of peripheral blood blasts in 13 of 19 evaluable patients. Twelve of 18 patients who were evaluable at 4 weeks following treatment had reductions in bone marrow blasts, including nine with reductions ≥50%. Three patients treated with 1 uCi/kg, 3 uCi/kg and 4 uCi/kg respectively had ≤5% blasts after therapy.
# AML [1] = assay: Phase 2 portion, monotherapy without LDAC in AML patients unfit for cytotoxic chemotherapy; format: in vivo, human
# Description: (§1) Preliminary data are available on 9 with median age 75 years (range, 65-82) and PS median 2 (0-1 in 2 patients, […], & 3 in 2 patients). Six (67%) had prior treatment for AHDs (5 MDS, 1 atypical CML). At baseline, 5 patients had ANC≥500/μL, only 2 had ANC≥1000/μL, and only 1 had platelets >50,000/μL.
# The 30-day mortality rate was 33% (disease progression, acute on chronic respiratory failure, and post-traumatic intracranial hemorrhage after a fall).
# Objective responses were documented in 5 of the 9 patients (56%): 2 Complete Remissions with incomplete platelet count recovery (CRp) and 3 Complete Remissions with incomplete hematologic recovery (CRi). Two patients had resistant disease.
# The two patients with CRp had neutrophil recovery at Days 60 and 36. Two of the patients with CRi had not reached ANC≥500/μL when they expired from infection on days 65 and 56, and the third is at day 66+ without ANC recovery. Since patients with antecedent hematologic disorders (AHDs) may not have capacity to recover to normal neutrophil production, patients without AHDs may be more informative. Of the 3 patients without AHDs, 1 had ANC recovery at Day 36, 1 had death from infection at Day 56 without ANC recovery, and 1 is pending ANC recovery at Day 66+. […]
# AML [2] = assay: Phase 1 clinical trial, fractionated doses combined with low dose Ara-C (LDAC); format: in vivo, human; conditions: fractionated doses on days 1 and 8 combined with LDAC
# Description: as §1
# [3] = test system: peripheral blood and bone marrow cells; assay: Reactivity with peripheral blood and bone marrow cells from frozen tissues; format: binding; conditions: nonhuman primate and human frozen tissues
# HL60 (leukemia cells) = assay: Cytotoxicity against HL60 cell suspensions; format: cell-based
# CD33 [4] = target: T1, CD33 (Homo sapiens, UniProt P20138); conditions: higher than M195; cited from earlier work
# [5] = test system: relapsed or refractory AML and CML; conditions: cited from earlier work
# CD33 [6] = target: T1, CD33; conditions: human peripheral blood mononuclear cells as effectors, cited from earlier work
# [7] = 2 equal doses administered 4-7 days apart
# [8] = 2 μCi/kg/fraction monotherapy, preliminary
# [9] = four clinical trials, native HuM195 alone
# T1 sequence (P20138 18-364): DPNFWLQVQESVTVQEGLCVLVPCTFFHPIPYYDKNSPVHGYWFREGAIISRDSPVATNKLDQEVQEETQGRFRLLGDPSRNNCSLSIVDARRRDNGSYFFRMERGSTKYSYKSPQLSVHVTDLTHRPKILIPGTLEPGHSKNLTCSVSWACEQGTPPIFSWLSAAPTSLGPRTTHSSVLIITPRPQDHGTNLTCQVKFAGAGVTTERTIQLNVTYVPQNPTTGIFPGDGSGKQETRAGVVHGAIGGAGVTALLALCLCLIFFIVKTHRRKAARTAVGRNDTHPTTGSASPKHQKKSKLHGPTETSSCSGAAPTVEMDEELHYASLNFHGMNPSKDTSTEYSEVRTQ
substance,measurement,setting,value
lintuzumab-Ac^225: Lintuzumab conjugated with Actinium-225 (Ac^225),elimination of peripheral blood blasts,relapsed/refractory AML; 0.5 uCi/kg to 4 uCi/kg,13 of 19
same,"MTD, split dose, per dose",relapsed/refractory AML; [7],2 uCi/kg per dose
same,"MTD, split dose, total",relapsed/refractory AML; [7],4 uCi/kg total
same,patients with reductions in bone marrow blasts ≥50%,relapsed/refractory AML; of 18 evaluable at 4 weeks,nine
same,"maximum tolerated dose (MTD), single injection",relapsed/refractory AML; single injection,3 uCi/kg patient weight
same,patients with ≤5% blasts after therapy,"relapsed/refractory AML; treated with 1 uCi/kg, 3 uCi/kg and 4 uCi/kg respectively",Three
same,30-day mortality rate,AML [1]; 2 μCi/kg/fraction,33%
same,Grade >3 non-hematologic toxicities reported in ≥1 pt,AML [1]; 2 μCi/kg/fraction,pneumonia and cellulitis
same,"platelet counts >20,000/μL without transfusions",AML [1]; 2 μCi/kg/fraction,"No patients reached platelet counts >20,000/μL without transfusions"
same,veno-occlusive disease,AML [1]; 2 μCi/kg/fraction,did not occur
same,objective response rate,AML [1]; [8],56%
same,objective responses (patients),AML [1]; [8],5 of the 9
same,myelosuppression,"AML [1]; 2 μCi/kg/fraction, days 1 and 8, preliminary data on 9 patients",seen in all evaluable patients
same,grade 4 thrombocytopenia with marrow aplasia for >6 weeks following therapy,"AML [1]; 2 μCi/kg/fraction, preliminary data on 9 patients",3 patients
same,median time to neutrophil recovery (ANC≥500/μL),"AML [1]; from the first dose, range 20-60",36 days
same,Complete Remissions with incomplete hematologic recovery (CRi),AML [1]; of 9 patients,3
same,Complete Remissions with incomplete platelet count recovery (CRp),AML [1]; of 9 patients,2
same,patients with resistant disease,AML [1]; of 9 patients,Two
same,dose at which treatment induced remissions,AML [2],above 0.5 uCi/kg/fraction
same,reactivity with peripheral blood and bone marrow cells (specificity),[3],reactivity with mononuclear cells only
same,dose at which 50% of the cells were killed (LD50),HL60 (leukemia cells),8 μCi per mL of cell suspension
HuM195: recombinant humanized anti-CD33 monoclonal antibody,binding avidity relative to M195,CD33 [4],greater than 8 fold
same,single agent activity in AML,[5]; even at supra-saturating doses that fully blocked CD33 binding sites throughout a 4-week period,very modest activity
same,human anti-human antibody responses,[5]; [9],not seen
same,most common toxicities,[5]; [9],"Fever, chills, and nausea"
same,reduction in marrow blast cells,[5]; [9],seen in some patients
same,antibody-dependent cell-mediated cytotoxicity (ADCC),CD33 [6],induced antibody-dependent cell-mediated cytotoxicity
same,antibody-dependent cell-mediated cytotoxicity (ADCC),CD33 [6]; listed as lintuzumab,demonstrated antibody-dependent cell-mediated cytotoxicity
